Measured values published in patent US11278600B2, “Human alpha-galactosidase variants” (Codexis, Inc., priority 2014, dated 2022).

What was measured:
Type in all cases: biochemical
[1] = HTP-analysis of supernatants pretreated with acid (MUGal hydrolysis); conditions: activity of the variant/activity of Rd4BB (SEQ ID NO: 15); challenge at pH 3.7
Summary of the method: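 GLA variants were secreted from INVSc1 yeast grown 66-84 h at 30° C. in SD-Ura with 2% glucose; supernatants were mixed with McIlvaine buffer pH 3.3-4.3 and held at 37° C. for 1-3 h. Residual activity on MUGal at pH 4.8 was then measured by fluorescence.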

[2] = HTP-analysis of supernatants pretreated with base (MUGal hydrolysis); conditions: activity of the variant/activity of Rd4BB (SEQ ID NO: 15); challenge at pH 9.65
Summary of the method: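 GLA variants were secreted by transformed INVSc1 yeast grown 66-84 h at 30° C. Supernatants were exposed to neutral-to-basic buffers (pH 7.0-9.7) at 37° C for 1-18 h, then assayed with MUGal in acidic citrate/McIlvaine buffer, with fluorescence read after quenching.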

[3] = HTP-analysis of yeast culture supernatants, no challenge (MUGal hydrolysis); conditions: activity of the variant/activity of Rd4BB (SEQ ID NO: 15)
Summary of the method: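 GLA variants expressed in yeast INVSc1, secreted into SD-Ura broth over 66-84 h at 30° C; clarified supernatants tested without challenge. Supernatant mixed with McIlvaine buffer pH 4.8 and 2 mM MUGal (citrate/KCl, pH 4.6), 37° C for 30-180 min, carbonate-quenched, fluorescence Ex 355/Em 448 nm.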

Molecule	Relative Activity of GLA Variants After Challenge at pH 3.7 [1]	Relative Activity of GLA Variants After Challenge at pH 9.65 [2]	Relative Activity of GLA Variants After No Challenge (NC) [3]
488 (protein, Synthetic Polypeptide sequence of Variant No. 488 of mature Human GLA) LDNGLARTPTMGWLHWERFMCNLDCQEEPDSCISEKLFMEMAERMVSEGWKDAGYEYLCIDDCWMAPQRDSEGRLQADPQRFPHGIRQLANYVHSKGLKLGIYADVGNKTCAGFPGSFGYYDIDAQTFADWGVDLLKFDGCYCDSLENLADGYKHMSLALNRTGRSIVYSCEWPLYMWPFQKPNYTEIRQYCNHWRNFADIDDSWKSIKSILDWTSFNQERIVDVAGPGGWNDPDMLVIGNFGLSWNQQVTQMALWAIMAAPLFMSNDLRHISPQAKALLQDKDVIAINQDPLGKQGYQLRQGDNFEVWERPLSGLAWAVAMINRQEIGGPRSYTIAVASLGKGVACNPACFITQLLPVKRKLGFYEWTSRLRSHINPTGTVLLQLENNMQMSLKDLL	+ (0.5 to 1.5 relative activity over Rd4BB (SEQ ID NO: 15))	+ (0.5 to 1.5 relative activity over Rd4BB (SEQ ID NO: 15))	+ (0.5 to 1.5 relative activity over Rd4BB (SEQ ID NO: 15))
489 (protein, Synthetic Polypeptide sequence of Variant No. 489 of mature Human GLA) LDNGLARTPTMGWLHWERFMCNLDCQEEPDSCISEKLFMEMAERMVSEGWKDAGYEYLCIDDCWMAPQRDSEGRLQADPQRFPHGIRQLANYVHSKGLKLGIYADVGNKTCAGFPGSFGYYDIDAQTFADWGVDLLKFDGCYCDSLENLADGYKHMSLALNRTGRSIVYSCEWPLYMWPFQKPNYTEIRQYCNHWRNFADIDDSWKSIKSILDWTSFNQERIVDVAGPGGWNDPDMLVIGNFGLSWNQQVTQMALWAIMAAPLFMSNDLRHISPQAKALLQDKDVIAINQDPLGKQGYQLRQGDNFEVWERPLSGLAWAVAMINRQEIGGPRSYTIAVASLGKGVACNPACFITQLLPVKRKLGFYEWTSRLRSHINPTGTVLLQLENIMQMSLKDLL	+ (0.5 to 1.5 relative activity over Rd4BB (SEQ ID NO: 15))	+ (0.5 to 1.5 relative activity over Rd4BB (SEQ ID NO: 15))	+ (0.5 to 1.5 relative activity over Rd4BB (SEQ ID NO: 15))
490 (protein, Synthetic Polypeptide sequence of Variant No. 490 of mature Human GLA) LDNGLARTPTMGWLHWERFMCNLDCQEEPDSCISEKLFMEMAERMVSEGWKDAGYEYLCIDDCWMAPQRDSEGRLQADPQRFPHGIRQLANYVHSKGLKLGIYADVGNKTCAGFPGSFGYYDIDAQTFADWGVDLLKFDGCYCDSLENLADGYKHMSLALNRTGRSIVYSCEWPLYMWPFQKPNYTEIRQYCNHWRNFADIDDSWKSIKSILDWTSFNQERIVDVAGPGGWNDPDMLVIGNFGLSWNQQVTQMALWAIMAAPLFMSNDLRHISPQAKALLQDKDVIAINQDPLGKQGYQLRQGDNFEVWERPLSGLAWAVAMINRQEIGGPRSYTIAVASLGKGVACNPACFITQLLPVKRKLGFYEWTSRLRSHINPTGTVLLQLENTDQMSLKDLL	+ (0.5 to 1.5 relative activity over Rd4BB (SEQ ID NO: 15))	+ (0.5 to 1.5 relative activity over Rd4BB (SEQ ID NO: 15))	+ (0.5 to 1.5 relative activity over Rd4BB (SEQ ID NO: 15))
491 (protein, Synthetic Polypeptide sequence of Variant No. 491 of mature Human GLA) LDNGLARTPTMGWLHWERFMCNLDCQEEPDSCISEKLFMEMAERMVSEGWKDAGYEYLCIDDCWMAPQRDSEGRLQADPQRFPHGIRQLANYVHSKGLKLGIYADVGNKTCAGFPGSFGYYDIDAQTFADWGVDLLKFDGCYCDSLENLADGYKHMSLALNRTGRSIVYSCEWPLYMWPFQKPNYTEIRQYCNHWRNFADIDDSWKSIKSILDWTSFNQERIVDVAGPGGWNDPDMLVIGNFGLSWNQQVTQMALWAIMAAPLFMSNDLRHISPQAKALLQDKDVIAINQDPLGKQGYQLRQGDNFEVWERPLSGLAWAVAMINRQEIGGPRSYTIAVASLGKGVACNPACFITQLLPVKRKLGFYEWTSRLRSHINPTGTVLLQLENTWQMSLKDLL	+ (0.5 to 1.5 relative activity over Rd4BB (SEQ ID NO: 15))	+ (0.5 to 1.5 relative activity over Rd4BB (SEQ ID NO: 15))	+ (0.5 to 1.5 relative activity over Rd4BB (SEQ ID NO: 15))
492 (protein, Synthetic Polypeptide sequence of Variant No. 492 of mature Human GLA) LDNGLARTPTMGWLHWERFMCNLDCQEEPDSCISEKLFMEMAERMVSEGWKDAGYEYLCIDDCWMAPQRDSEGRLQADPQRFPHGIRQLANYVHSKGLKLGIYADVGNKTCAGFPGSFGYYDIDAQTFADWGVDLLKFDGCYCDSLENLADGYKHMSLALNRTGRSIVYSCEWPLYMWPFQKPNYTEIRQYCNHWRNFADIDDSWKSIKSILDWTSFNQERIVDVAGPGGWNDPDMLVIGNFGLSWNQQVTQMALWAIMAAPLFMSNDLRHISPQAKALLQDKDVIAINQDPLGKQGYQLRQGDNFEVWERPLSGLAWAVAMINRQEIGGPRSYTIAVASLGKGVACNPACFITQLLPVKRKLGFYEWTSRLRSHINPTGTVLLQLENCMQMSLKDLL	+ (0.5 to 1.5 relative activity over Rd4BB (SEQ ID NO: 15))	+ (0.5 to 1.5 relative activity over Rd4BB (SEQ ID NO: 15))	+ (0.5 to 1.5 relative activity over Rd4BB (SEQ ID NO: 15))
493 (protein, Synthetic Polypeptide sequence of Variant No. 493 of mature Human GLA) LDNGLARTPTMGWLHWERFMCNLDCQEEPDSCISEKLFMEMAERMVSEGWKDAGYEYLCIDDCWMAPQRDSEGRLQADPQRFPHGIRQLANYVHSKGLKLGIYADVGNKTCAGFPGSFGYYDIDAQTFADWGVDLLKFDGCYCDSLENLADGYKHMSLALNRTGRSIVYSCEWPLYMWPFQKPNYTEIRQYCNHWRNFADIDDSWKSIKSILDWTSFNQERIVDVAGPGGWNDPDMLVIGNFGLSWNQQVTQMALWAIMAAPLFMSNDLRHISPQAKALLQDKDVIAINQDPLGKQGYQLRQGDNFEVWERPLSGLAWAVAMINRQEIGGPRSYTIAVASLGKGVACNPACFITQLLPVKRKLGFYEWTSRLRSHINPTGTVLLQLENTMQPSLKDLL	+ (0.5 to 1.5 relative activity over Rd4BB (SEQ ID NO: 15))	+ (0.5 to 1.5 relative activity over Rd4BB (SEQ ID NO: 15))	+ (0.5 to 1.5 relative activity over Rd4BB (SEQ ID NO: 15))
494 (protein, Synthetic Polypeptide sequence of Variant No. 494 of mature Human GLA) LDNGLARTPTMGWLHWERFMCNLDCQEEPDSCISEKLFMEMAERMVSEGWKDAGYEYLCIDDCWMAPQRDSEGRLQADPQRFPHGIRQLANYVHSKGLKLGIYADVGNKTCAGFPGSFGYYDIDAQTFADWGVDLLKFDGCYCDSLENLADGYKHMSLALNRTGRSIVYSCEWPLYMWPFQKPNYTEIRQYCNHWRNFADIDDSWKSIKSILDWTSFNQERIVDVAGPGGWNDPDMLVIGNFGLSWNQQVTQMALWAIMAAPLFMSNDLRHISPQAKALLQDKDVIAINQDPLGKQGYQLRQGDNFEVWERPLSGLAWAVAMINRQEIGGPRSYTIAVASLGKGVACNPACFITQLLPVKRKLGFYEWTSRLRSHINPTGTVLLQLENTFQMSLKDLL	+ (0.5 to 1.5 relative activity over Rd4BB (SEQ ID NO: 15))	+ (0.5 to 1.5 relative activity over Rd4BB (SEQ ID NO: 15))	+ (0.5 to 1.5 relative activity over Rd4BB (SEQ ID NO: 15))
495 (protein, Synthetic Polypeptide sequence of Variant No. 495 of mature Human GLA) LDNGLARTPTMGWLHWERFMCNLDCQEEPDSCISEKLFMEMAERMVSEGWKDAGYEYLCIDDCWMAPQRDSEGRLQADPQRFPHGIRQLANYVHSKGLKLGIYADVGNKTCAGFPGSFGYYDIDAQTFADWGVDLLKFDGCYCDSLENLADGYKHMSLALNRTGRSIVYSCEWPLYMWPFQKPNYTEIRQYCNHWRNFADIDDSWKSIKSILDWTSFNQERIVDVAGPGGWNDPDMLVIGNFGLSWNQQVTQMALWAIMAAPLFMSNDLRHISPQAKALLQDKDVIAINQDPLGKQGYQLRQGDNFEVWERPLSGLAWAVAMINRQEIGGPRSYTIAVASLGKGVACNPACFITQLLPVKRKLGFYEWTSRLRSHINPTGTVLLQLENPMQMSLKDLL	+ (0.5 to 1.5 relative activity over Rd4BB (SEQ ID NO: 15))	+ (0.5 to 1.5 relative activity over Rd4BB (SEQ ID NO: 15))	+ (0.5 to 1.5 relative activity over Rd4BB (SEQ ID NO: 15))
